Test results published in paper PMC4243959, “Sequestration of latent TGF-β binding protein 1 into CADASIL-related Notch3-ECD deposits” (Acta Neuropathologica Communications, 2014).

What was measured:
[1] = molecular target: recombinant human Notch3 encompassing aa 40-467 (N3EGF1-11-Fc) (human) (UniProt Q9UM47); assay: ELISA; solid-phase binding assay: 1 μg N3EGF1-11-Fc coated on Maxisorp plates in PBS overnight at 4°C, blocked with PBS/1% BSA; 50 μL conditioned supernatant of transfected HEK293T cells bound 1 h at room temperature; detection with anti-V5 or anti-LTBP-1 and anti-mouse-HRP; IgG1-Fc as control ligand
[2] = molecular target: the molecule itself; assay: scanning for intensely fluorescent targets (SIFT); purified proteins labelled with different fluorescent dyes, pre-cleared at 100,000 g, incubated pairwise in solution; 64 nM LTBP-1 variants, 160 nM N3EGF1-5; confocal single-particle measurement after 24 h

| fold binding over the control ligand IgG-Fc [1] [fold] | Molecule | binding result [2] |
| --- | --- | --- |
| 4.9 | full-length LTBP-1S (short human isoform of latent TGF-β binding protein 1, 1395 aa) with N-terminal HA tag and C-terminal V5-His tag (natural protein) |  |
|  | LTBP-1ΔN containing a C-terminal V5-His tag (LTBP-1ΔN_V5) (domain or fragment, human, UniProt Q14766-2 528-1395, looked up, fluorescent dye label (dye and site not stated), numbers count on: the short isoform of 1395 aa; source: HEK293E, purified (metal-ion matrix, via His tag); not shown: V5, C-terminal, kept; His, C-terminal, kept) APEASTSSASQVIAPTQVTEINECTVNPDICGAGHCINLPVRYTCICYEGYRFSEQQRKCVDIDECTQVQHLCSQGRCENTEGSFLCICPAGFMASEEGTNCIDVDECLRPDVCGEGHCVNTVGAFRCEYCDSGYRMTQRGRCEDIDECLNPSTCPDEQCVNSPGSYQCVPCTEGFRGWNGQCLDVDECLEPNVCANGDCSNLEGSYMCSCHKGYTRTPDHKHCRDIDECQQGNLCVNGQCKNTEGSFRCTCGQGYQLSAAKDQCEDIDECQHRHLCAHGQCRNTEGSFQCVCDQGYRASGLGDHCEDINECLEDKSVCQRGDCINTAGSYDCTCPDGFQLDDNKTCQDINECEHPGLCGPQGECLNTEGSFHCVCQQGFSISADGRTCEDIDECVNNTVCDSHGFCDNTAGSFRCLCYQGFQAPQDGQGCVDVNECELLSGVCGEAFCENVEGSFLCVCADENQEYSPMTGQCRSRTSTDLDVDVDQPKEEKKECYYNLNDASLCDNVLAPNVTKQECCCTSGVGWGDNCEIFPCPVLGTAEFTEMCPKGKGFVPAGESSSEAGGENYKDADECLLFGQEICKNGFCLNTRPGYECYCKQGTYYDPVKLQCFDMDECQDPSSCIDGQCVNTEGSYNCFCTHPMVLDASEKRCIRPAESNEQIEETDVYQDLCWEHLSDEYVCSRPLVGKQTTYTECCCLYGEAWGMQCALCPLKDSDDYAQLCNIPVTGRRQPYGRDALVDFSEQYTPEADPYFIQDRFLNSFEELQAEECGILNGCENGRCVRVQEGYTCDCFDGYHLDTAKMTCVDVNECDELNNRMSLCKNAKCINTDGSYKCLCLPGYVPSDKPNYCTPLNTALNLEKDSDLE | binds |
